Reference: PMC3574121

Tests used:
[1] = target: His-tagged FIV recombinant p24 capsid protein (Feline Immunodeficiency Virus, Petaluma strain) (Feline immunodeficiency virus (Petaluma strain)) (UniProt P16087); assay: dynamic light scattering; p24-His at 7 mg/ml, 50 mM sodium phosphate pH 7.4, 23°C; mean diameter 6.8 nm, single peak; monomer to dimer
[2] = target: His-tagged FIV recombinant p24 capsid protein (Feline Immunodeficiency Virus, Petaluma strain) (Feline immunodeficiency virus (Petaluma strain)) (UniProt P16087); assay: ITC; dilution ITC: p24 at 7 mg/ml (243 µM) injected into buffer alone, 50 mM sodium phosphate pH 7.4, 30°C; dimer dissociation model; dimer to monomers
[3] = target: His-tagged FIV recombinant p24 capsid protein (Feline Immunodeficiency Virus, Petaluma strain) (Feline immunodeficiency virus (Petaluma strain)) (UniProt P16087); assay: cross-linking; p24 at 7 mg/ml with BS3 (20:1 w/w BS3:p24), 30 min at room temperature, SDS-PAGE; dimer seen with and not without BS3; no higher molecular weight species

## His-tagged FIV recombinant p24 capsid protein (Feline Immunodeficiency Virus, Petaluma strain) (from UniProt P16087 136-357) (natural protein)
[1]
  stoichiometry N: 2
[2]
  Kd: 20 µM
[3]
  stoichiometry N: 2
